According to patent US20200000897A1 (published 2020):

Target: T1, HLA-A*03:01 (human)
T1 construct: MHC class I monomer first loaded with a UV-sensitive peptide that is cleaved by UV irradiation and exchanged for the test peptide; captured on streptavidin plates; also called peptide-receptive MHC molecules
Assay: UV-ligand exchange, anti-b2m ELISA; peptide exchange yield grade (>10% +, >20% ++, >50% +++, >75% ++++)
Description: Candidate peptides for T cell based therapies according to the present invention were further tested for their MHC binding capacity (affinity). The individual peptide-MHC complexes were produced by UV-ligand exchange, where a UV-sensitive peptide is cleaved upon UV-irradiation and exchanged with the peptide of interest as analyzed. Only peptide candidates that can effectively bind and stabilize the peptide-receptive MHC molecules prevent dissociation of the MHC complexes. To determine the yield of the exchange reaction, an ELISA was performed based on the detection of the light chain (β2m) of stabilized MHC complexes. The assay was performed as generally described in Rodenko et al. (Rodenko et al., 2006)
96 well MAXISorp plates (NUNC) were coated over night with 2 ug/ml streptavidin in PBS at room temperature, washed 4× and blocked forl h at 37° C. in 2% BSA containing blocking buffer. Refolded HLA-A*02:01/MLA-001 monomers served as standards, covering the range of 15-500 ng/ml. Peptide-MHC monomers of the UV-exchange reaction were diluted 100-fold in blocking buffer. Samples were incubated for 1 h at 37° C., washed four times, incubated with 2 ug/ml HRP conjugated anti-β2m for 1 h at 37° C., washed again and detected with TMB solution that is stopped with […]. Absorption was measured at 450 nm.

Binder	peptide exchange yield
KMMKRLMTVEK	> 75%
LASSPAGHK	50 to 75%
ATNGKVLKKR	> 75%
KTLGKIAEK	> 75%
KINPTASLK	50 to 75%
MKTLPAMLGTGK	20 to 50%
KIICGVHYLY	10 to 20%
KLQNLPTLLY	50 to 75%
ASLAAAVLAK	50 to 75%
LLRSGLTLR	20 to 50%
KIKKPLSYR	> 75%
ATSPPASVR	> 75%
MLYYPSVSR	> 75%
IIFIPATILLK	> 75%
AVAFFVLPSK	> 75%
AILHPFRAK	50 to 75%
GLAAGALLLY	20 to 50%
KVLTRNIEY	50 to 75%

Binder	peptide exchange yield
ATIGLSVSK	> 75%
ALSRMSQQY	> 75%
LIGPLLICK	> 75%
KVFAEHKISY	50 to 75%
AATIISSAK	10 to 20%
ALARVSSVKL	50 to 75%
KLFMPRPK	50 to 75%
GGLSSQGVYY	20 to 50%
KVASFTVIGY	50 to 75%
ATNGKVLKK	> 75%
ILNLNKMVK	50 to 75%
LLLAAVTVK	20 to 50%
PLAMLAATCNK	20 to 50%
RALGVPFVPR	> 75%
QVLDLQSVK	20 to 50%
ALLGVIIAKK	> 75%
AVVQGLVEK	20 to 50%
ASSFRPLLSK	50 to 75%

Second part, the binder after the results:

peptide exchange yield	Binder
10 to 20%	SLRGSFPILY
> 75%	SLFEGIYTIK
50 to 75%	RLYAPVVNISRL
> 75%	TLLSYELAFK
50 to 75%	SLLEADPFLK
50 to 75%	RIYVYVKRK
50 to 75%	VSYNRLIK
20 to 50%	TRMQKAGFLYY
20 to 50%	VAFFVLPSK
> 75%	RVDSKQRYY
10 to 20%	SPRVYWLGLNDR
> 75%	VVYDTMIEKF
50 to 75%	VIGTTSSPK
> 75%	RLRDYISSLK
50 to 75%	VVYDTMIEK
50 to 75%	TVFLSKYLKK

peptide exchange yield	Binder
> 75%	SIYKKAVYR
20 to 50%	TIASVLVAR
50 to 75%	VSLSKMLKK
> 75%	RLAQYTIER
> 75%	RMGFRTLSK
50 to 75%	SLLKPSGDYFK
10 to 20%	VSIRNTLLY
50 to 75%	RVYPHKTLY
20 to 50%	VSLGIAVSK
50 to 75%	RIGNKGIYK
> 75%	TVYVAMCHKF
20 to 50%	TVFVELWLK
> 75%	RLYDAYVNR
> 75%	RLLPGKVVWK
> 75%	SLLTVSGAWAK
